The record followed here is patent publication US7179650.

The target in test [1] is pGBT9-Fas (191-319AA): intracellular domain of Fas/APO-1 fused to the GAL4 DNA-binding domain (human). As to the kind of experiment: yeast two-hybrid β-galactosidase filter assay.
For test [2], the target named is P53 (yeast two-hybrid control). As to the kind of experiment: yeast two-hybrid β-galactosidase filter assay (control pair).
Sequence of P53 (yeast two-hybrid control) (P02340 72-390): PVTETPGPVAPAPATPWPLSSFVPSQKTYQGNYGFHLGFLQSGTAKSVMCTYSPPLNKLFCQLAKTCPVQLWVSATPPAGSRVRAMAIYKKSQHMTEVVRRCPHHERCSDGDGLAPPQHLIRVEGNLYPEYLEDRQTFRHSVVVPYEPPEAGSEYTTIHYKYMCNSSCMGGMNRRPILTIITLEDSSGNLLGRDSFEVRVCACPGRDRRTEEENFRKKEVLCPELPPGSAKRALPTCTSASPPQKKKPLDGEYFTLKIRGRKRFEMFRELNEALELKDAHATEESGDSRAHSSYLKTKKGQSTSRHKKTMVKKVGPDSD

In test [1], “Sentrin-1 (SEQ ID NO:2) fused to the Gal4 activation-domain (from UniProt A7WLH8 1-101)” gave a time for the colony to turn blue of less than 3 h. Consider “SV40 T antigen (yeast two-hybrid control) (from UniProt P03070 84-708)”, for which the time for the colony to turn blue in test [2] was less than 30 min.

As to “Clone 68: in-frame fusion of the Gal4 activation domain to the death domain of FADD/MORT1 (from UniProt Q13158 80-208)”, the time for the colony to turn blue in test [1] was less than 3 h.
